Key:
[1] = molecular target: purified (GP)IIb/IIIa (Homo sapiens, UniProt P05106+P08514); assay: Fibrinogen-(GP)IIb/IIIa ELISA; assay type: binding
From the text: Several lines of evidence indicate that CN inhibits platelet aggregation by binding specifically to the (GP)IIb/IIIa integrin receptor. […] Additionally, the partial amino acid sequence of CN indicates considerable similarity with other disintegrins known to bind to (GP)IIb/IIIa. Finally, CN blocks 7E3 binding to (GP)IIb/IIIa. 7E3 is a murine monoclonal antibody that specifically binds to (GP)IIb/IIIa, thereby inhibiting human and canine platelet aggregation [Coller, B. S. et al., J. Clin. Invest. 72:325 (1983)].

[2] = tested on: canine platelets; conditions: cited from earlier work

B1: contortrostatin (protein)
chain: DAPANPCCDAATCKLTTGSQCADGLCCDQCKFMKEGTVCRRARGDDLDDYCNGISAGCPRNPFHA
- (GP)IIb/IIIa binding to immobilized fibrinogen [1]: effectively blocks (GP)IIb/IIIa binding
- 50% inhibition (IC50) of platelet aggregation, canine platelets [2]: 2.2 µg/mL

Source: US6710030B1, “Contortrostain (CN) and methods for its use in preventing metastasis and other conditions” (University of Southern California, priority 1993, dated 2004)
